Experiments:
[1] = biological target: T7-bio: coliphage T7 major capsid protein gp10A fused to the 15-amino acid biotinylation peptide, biotinylated in vivo by the host BLP (Enterobacteria phage T7); experiment: flow cytometry of carrier E. coli cells with phage at MOI 5 and streptavidin-QDs
[2] = biological target: T7-bio: coliphage T7 major capsid protein gp10A fused to the 15-amino acid biotinylation peptide, biotinylated in vivo by the host BLP (Enterobacteria phage T7); experiment: TEM of phage adsorbed to carrier E. coli cells, streptavidin-coated QDs in excess

T7-bio: coliphage T7 major capsid protein gp10A fused to the 15-amino acid biotinylation peptide, biotinylated in vivo by the host BLP (Enterobacteria phage T7), sequence (P19727 1-349, tags or fused parts left off): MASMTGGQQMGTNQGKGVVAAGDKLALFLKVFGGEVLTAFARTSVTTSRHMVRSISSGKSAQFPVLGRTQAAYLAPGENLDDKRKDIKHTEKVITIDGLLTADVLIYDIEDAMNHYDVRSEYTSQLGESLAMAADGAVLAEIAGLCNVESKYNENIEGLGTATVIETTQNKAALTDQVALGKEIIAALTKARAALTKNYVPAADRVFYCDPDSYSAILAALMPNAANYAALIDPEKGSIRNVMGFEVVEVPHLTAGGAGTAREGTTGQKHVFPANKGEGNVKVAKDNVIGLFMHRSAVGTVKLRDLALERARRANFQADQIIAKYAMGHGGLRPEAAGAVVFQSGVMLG

streptavidin coated QD (QD 605), Quantum Dot Corporation (from UniProt P22629 37-163)
fluorescence against the T7-myc control (orders of magnitude) [1]: 2 | percent of phage-bound cells with fluorescence above the threshold (P2) [1]: 94% | percent of T7-bio phage with no QDs bound [2]: 7% | percent of the total peptides displayed that carry a QD [2]: 0.5%

Source: US20110086338A1
